Experimental data: the supplement of paper PMC10567573

B1: KIAA0774 (parent)
chain: FEDEVKRLGWQQQAELQELEERLQ
B2: SCARA5 (parent)
chain: VTEDLRLKDWEHSIALRNISLAKG

Variants of: B1
Assay: protein stability index of a GFP-peptide fusion (GPS, HEK-293T) (PSI 1-6); higher = more stable
Details: c terminus: a fixed tail appended
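Note: lentivirally expressed fusions sorted by FACS into six bins by GFP to DsRed ratio, PSI derived from sequencing read proportions per bin multiplied by bin number.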

Protein stability index of substitutions, site by site:
Q11: E 4.83 | Y 4.76 | N 4.52 | H 5.08 | I 3.88 | P 4.57 | F 3.73 | R 4.44 | L 4.46 | V 1.72 | M 3.79 | S 4.4 | T 3.3 | W 4.16 | K 4.41 | G 4.84
E21: K 4.76 | S 4.17 | P 4.51 | Q 4.67 | C 4.38 | G 4.76 | R 4.46 | F 4.07 | Y 3.88 | L 4.71 | M 4.32 | I 3.79 | N 3.17 | W 2.91 | D 4.27 | T 4.69 | H 4.41 | A 4.69 | V 4.14
L23: A 4.08 | E 4.65 | C 4.14 | H 4.53 | I 3.97 | S 4.91 | N 4.42 | V 4.65 | T 4.84 | R 4.58 | F 4.09 | Q 4.05 | W 3.88 | M 4.03 | Y 4.51 | D 5.21 | G 4.58 | K 4.16 | P 5.48
L16: T 5.08 | G 5.23 | W 3.93 | Q 4.09 | H 4.84 | A 4.34 | M 4.48 | N 4.87 | Y 4.13 | C 4.75 | K 4.88 | S 4.91 | F 4.15 | P 5.24 | V 4.86 | E 5.1 | I 3.89 | D 5.11 | R 4.04
R22: K 3.85 | D 5.9 | M 4.04 | H 4.88 | E 5.78 | P 5.33 | L 4.13 | Y 4.24 | V 3.77 | G 5.26 | W 4.31 | Q 4.95 | F 4.62 | A 4.99 | C 4.48 | T 4.83 | S 5.01 | I 4.06 | N 5.69
A14: R 4.7 | I 1.73 | G 5.26 | T 2.53 | M 4.37 | C 3 | S 4.44 | L 1.85 | Y 2.29 | Q 4.61 | N 4.64 | H 4.27 | P 5.4 | K 5.32 | E 5.64 | F 2.63 | W 2.53 | D 5.2
E15: H 3.53 | N 4.51 | R 2.92 | K 3.2 | Y 2.65 | T 3.87 | V 3.65 | A 2.74 | L 3.13 | I 2.64 | F 2.42 | C 3.39 | W 2.85 | M 3.32 | G 3.85 | D 4.46 | P 3.71 | S 4.05
E18: N 3.94 | L 2.63 | S 4.7 | V 3.84 | W 2.4 | Q 3.91 | Y 2.69 | K 4.41 | A 3.84 | I 1.74 | H 3.37 | M 2.89 | P 4.72 | T 4.47 | C 3.17 | F 2.13 | D 4.61 | R 2.74 | G 4.68
E20: T 3.53 | H 4.29 | Q 3.9 | P 4.8 | R 3.87 | S 4.49 | G 3.05 | L 3.38 | F 2.51 | A 4.08 | M 3.81 | D 4.84 | Y 3.71 | C 4.34 | K 4.4 | N 4.32 | I 3.74 | V 3.49 | W 3.05
Q24: P 4.96 | F 3.28 | H 3.93 | L 3.48 | I 3.41 | R 4.14 | A 3.81 | S 4.01 | E 3.8 | Y 3.82 | K 4.73 | M 3.92 | G 4.62 | W 3.49 | D 3.98 | V 3.12 | T 3.99 | N 4.48 | C 4.22
Q12: L 2.85 | V 2.83 | P 5.22 | F 2.78 | T 3.45 | E 4.09 | K 4.03 | Y 2.31 | H 3.1 | G 4.14 | R 3 | N 4.8 | I 2.45 | S 5.12 | D 4.85 | C 2.14 | W 2.9 | A 3.83 | M 3.13
L19: K 3.24 | Q 4.17 | F 4.12 | D 5.22 | S 4.39 | W 3.92 | A 3.48 | R 3.68 | I 4.27 | E 5.22 | M 4.42 | G 5.4 | Y 4.14 | P 5.42 | T 4.65 | C 4.43 | V 4.53 | H 4.08 | N 5.2
Q13: Y 3.58 | K 3.77 | D 4.76 | A 4.31 | E 5.03 | H 4.39 | P 5.11 | W 3.67 | M 2.6 | G 5.35 | L 3.5 | N 5.2 | F 4.42 | R 2.99 | C 4.83 | T 3.74 | V 3.86 | I 3.44 | S 5.01
Q17: I 4.25 | D 3.55 | W 2.31 | K 4.88 | E 3.12 | T 4.78 | P 4.91 | A 4.22 | S 4.75 | R 4.71 | H 4.34 | Y 3.26 | C 4.01 | F 3.98 | N 5.34 | G 5.2 | M 4.57 | L 4.54 | V 4.51

Variants of: B2
Assay: as above
Details: c terminus: a fixed tail appended

Protein stability index, by site and new letter:
D4: H 3.43 | Q 3.42 | G 3.04 | S 2.76 | T 3.03 | M 2.45 | N 3.33 | K 2.61 | A 2.87 | F 2.03 | R 3.16 | C 2.53 | L 2.26 | P 3.41 | I 2.35 | E 3.45
T2: R 3.21 | V 3.48 | Q 3.58 | M 3.38 | S 3.11 | N 3.85 | H 3.52 | G 3.26 | E 4.15 | Y 3.17 | L 2.49 | A 3.21 | P 3.69 | K 3.65 | F 2.61 | I 2.5 | W 2.46 | D 3.8 | C 3.12
V1: H 3.89 | S 3.74 | D 3.75 | W 3.42 | T 3.89 | P 3.88 | I 3.54 | M 3.5 | Q 4.04 | F 2.81 | E 3.98 | R 3.39 | C 2.72 | A 3.77 | Y 2.83 | G 3.15 | L 3.26 | K 3.34 | N 3.98
E3: R 2.96 | L 1.37 | K 3 | I 2.26 | T 2.71 | P 3.39 | C 2.25 | Y 2.44 | A 1.74 | G 2.94 | M 2.75 | V 1.69 | S 3.16 | N 3.03 | F 1.85 | W 1.58 | Q 2.63 | D 3.68 | H 3.03
